In US20240076386A1 (Pfizer, published 2024):

How the values were obtained:
[1] = target: T1, human E-selectin, cell-surface expressed (human, UniProt P16581 22-610); test: flow cytometry, CHO cells
T1 construct: also called CHO-human E-selectin cells; human CHO-E
T1 sequence: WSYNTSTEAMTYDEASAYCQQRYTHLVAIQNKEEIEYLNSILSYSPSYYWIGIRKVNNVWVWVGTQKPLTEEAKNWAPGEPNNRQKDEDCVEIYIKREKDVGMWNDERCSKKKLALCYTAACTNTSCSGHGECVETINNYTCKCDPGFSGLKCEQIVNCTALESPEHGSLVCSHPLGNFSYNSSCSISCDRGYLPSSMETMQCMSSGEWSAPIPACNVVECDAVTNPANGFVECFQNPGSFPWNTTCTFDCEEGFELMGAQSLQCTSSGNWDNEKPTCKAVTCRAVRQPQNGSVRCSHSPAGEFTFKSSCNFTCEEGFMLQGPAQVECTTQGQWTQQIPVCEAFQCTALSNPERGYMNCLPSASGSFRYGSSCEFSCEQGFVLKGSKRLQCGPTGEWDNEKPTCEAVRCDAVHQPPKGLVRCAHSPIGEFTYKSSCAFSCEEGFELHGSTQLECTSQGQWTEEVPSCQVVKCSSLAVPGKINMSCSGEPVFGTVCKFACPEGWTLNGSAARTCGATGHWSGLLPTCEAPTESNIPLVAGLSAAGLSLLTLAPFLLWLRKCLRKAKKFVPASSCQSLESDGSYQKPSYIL
Description: (§1) Cells were maintained in growth medium at 37° C., 5% CO₂ and 95% air in a humidified incubator. Methotrexate or Zeocin were removed from the medium prior to culture for experiments. CHO-E selectin cells were detached from T-150 flasks using citric saline (135 mM KCl, 15 mM sodium citrate) and immediately re-calcified with the addition of CaCl₂) to the detached cells to a final concentration of 1 mM. Growth media was immediately added to the detached cells, then centrifuged at 300×g for 5 minutes at room temperature to pellet the cells. Cells were plated into 96-well round-bottom plates in cold CHO buffer consisting of phosphate buffered saline (PBS), pH 7.4 containing bovine serum albumin (BSA; Sigma-Aldrich) at final concentration of 1%, calcium chloride at final concentration of 1 mM, and sodium azide at a final concentration of 0.1%, for 5 minutes on wet ice. After incubation, the cells were centrifuged at 300×g for 2 minutes at 4° C. to remove the buffer.
(§2) After incubation, the antibodies were removed and the cells were washed three times by centrifugation at 300×g for 1 minute at 4° C. and resuspended in cold CHO buffer. The washed cells were resuspended and incubated for 30 minutes on wet ice with 100 μL of 1:1000 dilution of APC-conjugated AffiniPure F(ab′)₂ Fragment Goat Anti-human IgG, Fcγ (Jackson Immunoresearch). The cells were washed three or four times prior to resuspension in CHO buffer for flow cytometric analysis. A Becton Dickinson LSRFortessa instrument using 640 nanometer laser line was used to acquire cell fluorescence data. Geometric mean fluorescence of cells was analyzed by FlowJo software package (FlowJo, LLC) and plotted against antibody concentration. The estimated EC₅₀ values were calculated using nonlinear regression analysis in the GraphPad Prism suite.

[2] = target: T2, cynomolgus monkey E-selectin, cell-surface expressed (cynomolgus monkey, UniProt P16581 22-610 (human entry)); test: flow cytometry, CHO cells
T2 construct: also called CHO-cynomolgus monkey E-selectin cells; cynomolgus monkey CHO-E
T2 chain: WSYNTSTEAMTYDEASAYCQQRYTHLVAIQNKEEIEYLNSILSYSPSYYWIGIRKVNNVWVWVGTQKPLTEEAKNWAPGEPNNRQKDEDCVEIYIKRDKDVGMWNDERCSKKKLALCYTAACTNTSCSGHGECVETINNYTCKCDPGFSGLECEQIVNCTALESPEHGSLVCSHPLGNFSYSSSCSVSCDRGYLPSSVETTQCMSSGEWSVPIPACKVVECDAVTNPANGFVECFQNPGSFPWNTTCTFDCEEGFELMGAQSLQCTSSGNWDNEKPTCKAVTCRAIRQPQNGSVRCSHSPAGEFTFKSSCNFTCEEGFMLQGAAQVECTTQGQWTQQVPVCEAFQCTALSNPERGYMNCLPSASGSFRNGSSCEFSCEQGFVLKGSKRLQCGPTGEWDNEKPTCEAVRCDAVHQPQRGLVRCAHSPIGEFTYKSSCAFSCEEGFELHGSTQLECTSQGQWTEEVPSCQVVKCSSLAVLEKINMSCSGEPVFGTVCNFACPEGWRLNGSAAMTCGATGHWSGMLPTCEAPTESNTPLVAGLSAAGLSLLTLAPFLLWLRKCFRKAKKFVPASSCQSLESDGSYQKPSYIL
Description: as §1, §2

[3] = target: T1, human E-selectin, cell-surface expressed; test: competition ELISA on CHO cells vs sialyl Lewis ligand-PAA-biotin/SA-HRP
Description: (§3) In a static ligand cellular adhesion assay, horse radish peroxidase (HRP) conjugated E-selectin ligand and E-selectin antibodies compete for binding to human or cynomolgus E-selectin expressed on Chinese hamster ovary (CHO) cells. The ability of anti-E-selectin antibodies to neutralize the ligand binding was assessed in a static neutralization assay using a competition enzyme-linked immunosorbent assay (ELISA) to evaluate the neutralization of the sialyl Lewis antigen to Chinese hamster ovary cells (CHO) engineered to express human or cynomolgus monkey E-selectin.
(§4) CHO cells expressing E-selectin were seeded at 12,500 cells per well into a 96 well tissue culture plate and incubated at 37° C., 5% CO₂ for 48 hours to form a confluent monolayer. Plates were subsequently washed twice with 200 μL of calcium magnesium free PBS. Anti-E-selectin antibodies, or an IgG1 isotype control, were added to the assay in the presence of a small synthetic conjugate of biotinylated, sialyl Lewis A polyacrylamide (Carbosynth LLC, OS45446) or sialyl Lewis X polyacrylamide (Glycotech, 01-045) with a streptavidin/horseradish peroxidase (100 μL total) and incubated at 37° C., 5% CO₂ for 2 hours. Plates were then washed twice with 200 μL of calcium magnesium free PBS. Following the incubation, the cells were washed twice with 200 μL of wash buffer containing 2 mM calcium chloride (50 mM TRIS [trisaminomethane], 150 mM sodium chloride; 0.05% polysorbate 20, pH 7.4; 2 mM of calcium chloride). Signal was developed by adding 100 μL of 1-Step Ultra TMB substrate (Thermo Scientific, 34028) and incubating for 30 minutes at room temperature. Reactions were stopped using 2 M of sulfuric acid and absorbance was read at 450 nm (Spectramax M5e). Data was analyzed and graphed using GraphPad Prism software (Version 8.0.2).

[4] = target: T2, cynomolgus monkey E-selectin, …; test: as above
Description: as §3, §4

[5] = target: T1, human E-selectin, cell-surface expressed; test: cell-based or functional assay

Binder | EC50 [1] | EC50 [2] | IC50 [3] | IC50 [4] | neutralization under physiological flow, HL-60 cell adhesion to CHO-human E-selectin cells IC50 (nM) [5]
humanized anti-E-selectin antibody 0841 (antibody, human IgG1, kappa, V domains shown, effector-null human IgG1, kappa) VH: EVQLVESGGGLVQPGGSLRLSCAASGYNIRSSYMHWVRQAPGKGLEWVARIDPANGNTIYAEKFKIRFTISADNAKNSAYLQMNSLRAEDTAVYYCAMDLYSTSEYWGQGTLVTVSS VL: DIQMTQSPSSLSASVGDRVTITCKTSQNINRYLNWYQQKPGKAPKLLIYNANSLQTGVPSRFSGSGSGTDFTLTISSLQPEDFATYFCLQDNSWPLTFGQGTKVEIKR | 1.62 nM | 1.54 nM | 3.81 nM | 1.74 nM | 4.17 nM
anti-E-selectin antibody 0164 chimera (antibody, human IgG1, kappa, V domains shown, rat VH/VL on effector-null human IgG1 and human kappa) VH: EVQLQQSGAEFGKPGTSVKLSCKVSGYNIRSSYMHWVNQRPGKGLEWIGRIDPANGNTIYAEKFKIKAILTADSSSNTAYMQLSQLKSDDTAIYFCAMDLYSTSEYWGQGVMVTVSS VL: DIQMTQSPSFLSASVGDRVTINCKTSQNINRYLNWYQQKLGEAPKLLIYNANSLQTGIPSRFSASGSGTDFTLTINSLQPEDVATYFCLQDNSWPLTFGSGTKLEIKR | 1.39 nM | 1.73 nM | 5.17 nM | 2 nM | 3.73 nM
